Assays:
[1] = target: T1, p38α (MAPK14), nonphosphorylated (mouse, UniProt P47811 1-360); assay: ITC
[2] = target: T2, dual (pThr180, pTyr182) phosphorylated p38α (mouse, UniProt P47811 1-360, phosphothreonine at 180, phosphotyrosine at 182); assay: ITC; p38α dually phosphorylated
[3] = target: T1, p38α (MAPK14), nonphosphorylated; assay: FP; displacement of fluorescein-labeled MKK3b peptide
[4] = target: T2, dual (pThr180, pTyr182) phosphorylated …; assay: ITC; p38α dually phosphorylated; TAB1 pSer423

T1 sequence (P47811 whole entry): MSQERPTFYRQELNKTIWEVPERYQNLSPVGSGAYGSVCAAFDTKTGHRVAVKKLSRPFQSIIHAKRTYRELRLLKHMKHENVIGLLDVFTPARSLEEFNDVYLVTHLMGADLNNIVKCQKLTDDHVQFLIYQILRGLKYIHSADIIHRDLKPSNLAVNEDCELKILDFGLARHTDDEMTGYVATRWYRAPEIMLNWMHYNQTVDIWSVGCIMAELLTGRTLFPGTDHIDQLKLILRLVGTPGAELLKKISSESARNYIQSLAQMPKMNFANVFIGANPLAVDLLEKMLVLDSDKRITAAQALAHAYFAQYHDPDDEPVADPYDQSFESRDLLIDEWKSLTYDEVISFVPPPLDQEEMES
T2 sequence (P47811 whole entry): as above

Binder | Kd [1] [nM] | Kd [2] [nM] | IC50 [3] [nM] | Kd [4] [nM]
Ac-RVYPVSVPYSSAQSTSKTSVTLSLVMPSQ-NH2 [TAB1 (residues 384–412) peptide] | 2900 | 2000 | 11000 | 
TAB1 (residues 1–438) (domain or fragment) MAAQRRSLLQSEQQPSWTDDLPLCHLSGVGSASNRSYSADGKGTESHPPEDNWLKFRSENNCFLYGVFNGYDGNRVTNFVAQRLSAELLLGQLNTEHTEADVRRVLLQAFDVVERSFLESIDDALAEKASLQSQLPEGVPQHQLPPQYQKILERLKALEREISGGAMAVVAVLLNSKLYVANVGTNRALLCKSTVDGLQVTQLNMDHTTENEDELFRLSQLGLDAGKIKQMGVICGQESTRRIGDYKVKYGYTDIDLLSAAKSKPIIAEPEIHGAQPLDGVTGFLVLMSEGLYKALEAAHGPGQANQEIAAMIDTEFAKQTSLDAVAQAVVDRVKRIHSDTFASGGERAKFCPRHEDMTLLVRNFGYPLGEMSQPTPTPAPGGRVYPVSVPYSSAQSTSKTSVTLSLVMPSQGQMVNGSHSASTLDEATPTLTNQSPT | 1500 |  |  | 
TAB1 (residues 1–438) phosphorylated at Serine 423 (domain or fragment, phosphoserine at 423) MAAQRRSLLQSEQQPSWTDDLPLCHLSGVGSASNRSYSADGKGTESHPPEDNWLKFRSENNCFLYGVFNGYDGNRVTNFVAQRLSAELLLGQLNTEHTEADVRRVLLQAFDVVERSFLESIDDALAEKASLQSQLPEGVPQHQLPPQYQKILERLKALEREISGGAMAVVAVLLNSKLYVANVGTNRALLCKSTVDGLQVTQLNMDHTTENEDELFRLSQLGLDAGKIKQMGVICGQESTRRIGDYKVKYGYTDIDLLSAAKSKPIIAEPEIHGAQPLDGVTGFLVLMSEGLYKALEAAHGPGQANQEIAAMIDTEFAKQTSLDAVAQAVVDRVKRIHSDTFASGGERAKFCPRHEDMTLLVRNFGYPLGEMSQPTPTPAPGGRVYPVSVPYSSAQSTSKTSVTLSLVMPSQGQMVNGSHSASTLDEATPTLTNQSPT |  |  |  | 1700
Ac-GKSKRKKDLRISCMSKP-NH2 [MKK3b peptide, unlabeled] |  |  | 15000 | 
